Assay results reported in ChEMBL document CHEMBL2177050, “Understanding the binding of daunorubicin and doxorubicin to NADPH-dependent cytosolic reductases by computational methods” (Eur J Med Chem, 2012).

Tests used:
[1] = target: T1, Aldo-keto reductase family 1 member A1 (Homo sapiens) (UniProt P14550); assay: Activity of human AKR1A1 expressed in Escherichia coli BL21 assessed per mg protein in presence of 0.2 mM NADPH
T1 sequence (whole entry): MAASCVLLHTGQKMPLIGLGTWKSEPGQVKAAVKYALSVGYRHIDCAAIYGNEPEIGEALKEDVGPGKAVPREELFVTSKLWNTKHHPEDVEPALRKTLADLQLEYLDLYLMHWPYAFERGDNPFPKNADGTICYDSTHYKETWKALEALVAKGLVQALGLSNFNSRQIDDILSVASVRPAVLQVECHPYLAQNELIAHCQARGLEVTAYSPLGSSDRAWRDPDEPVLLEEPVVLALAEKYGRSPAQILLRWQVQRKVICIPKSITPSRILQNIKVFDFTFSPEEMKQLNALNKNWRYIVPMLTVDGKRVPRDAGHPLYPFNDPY

[2] = substrate: COc1cccc2c1C(=O)c1c(O)c3c(c(O)c1C2=O)C[C@@](O)(C(=O)CO)C[C@@H]3O[C@H]1C[C@H](N)[C@H](O)[C@H](C)O1; assay: (§1) Activity of human recombinant His6-tagged carbonyl reductase 1 expressed in Escherichia coli BL21(DE3) using menadione as substrate by Michaelis-Menten plot analysis
[3] = substrate: COc1cccc2c1C(=O)c1c(O)c3c(c(O)c1C2=O)C[C@@](O)(C(C)=O)C[C@@H]3O[C@H]1C[C@H](N)[C@H](O)[C@H](C)O1; assay: as §1
[4] = substrate: COc1cccc2c1C(=O)c1c(O)c3c(c(O)c1C2=O)C[C@@](O)(C(=O)CO)C[C@@H]3O[C@H]1C[C@H](N)[C@H](O)[C@H](C)O1; assay: Activity of His-tagged carbonyl reductase 1
[5] = substrate: COc1cccc2c1C(=O)c1c(O)c3c(c(O)c1C2=O)C[C@@](O)(C(=O)CO)C[C@@H]3O[C@H]1C[C@H](N)[C@H](O)[C@H](C)O1; assay: (§2) Activity of human carbonyl reductase 1
[6] = substrate: COc1cccc2c1C(=O)c1c(O)c3c(c(O)c1C2=O)C[C@@](O)(C(C)=O)C[C@@H]3O[C@H]1C[C@H](N)[C@H](O)[C@H](C)O1; assay: as §2
[7] = substrate: COc1cccc2c1C(=O)c1c(O)c3c(c(O)c1C2=O)C[C@@](O)(C(=O)CO)C[C@@H]3O[C@H]1C[C@H](N)[C@H](O)[C@H](C)O1; assay: Activity of GST-tagged aldo-keto reductase 1A1

`COc1cccc2c1C(=O)c1c(O)c3c(c(O)c1C2=O)C[C@@](O)(C(=O)CO)C[C@@H]3O[C@H]1C[C@H](N)[C@H](O)[C@H](C)O1` gave an Activity [1] of 11 nmol/min.

`COc1cccc2c1C(=O)c1c(O)c3c(c(O)c1C2=O)C[C@@](O)(C(C)=O)C[C@@H]3O[C@H]1C[C@H](N)[C@H](O)[C@H](C)O1` was tested, and the Activity [1] was 120 nmol/min.

B1: Carbonyl reductase [NADPH] 1 (Homo sapiens), P16152 (protein)
chain: MSSGIHVALVTGGNKGIGLAIVRDLCRLFSGDVVLTARDVTRGQAAVQQLQAEGLSPRFHQLDIDDLQSIRALRDFLRKEYGGLDVLVNNAGIAFKVADPTPFHIQAEVTMKTNFFGTRDVCTELLPLIKPQGRVVNVSSIMSVRALKSCSPELQQKFRSETITEEELVGLMNKFVEDTKKGVHQKEGWPSSAYGVTKIGVTVLSRIHARKLSEQRKGDKILLNACCPGWVRTDMAGPKATKSPEEGAETPVYLALLPPDAEGPHGQFVSEKRVEQW
B1 showed a Km [2] of 287 µM, a kcat [2] of 0.21 s⁻¹ and a Km [3] of 51 µM. For the same molecule, the kcat [3] was 1.94 s⁻¹, the Km [4] was 167 µM and the kcat [4] was 0.0103 s⁻¹. It also gave a Km [5] of 90 µM, a Km [6] of 108 µM and a kcat [6] of 1.27 s⁻¹.

B2: Aldo-keto reductase family 1 member A1 (Homo sapiens), P14550 (protein)
chain: MAASCVLLHTGQKMPLIGLGTWKSEPGQVKAAVKYALSVGYRHIDCAAIYGNEPEIGEALKEDVGPGKAVPREELFVTSKLWNTKHHPEDVEPALRKTLADLQLEYLDLYLMHWPYAFERGDNPFPKNADGTICYDSTHYKETWKALEALVAKGLVQALGLSNFNSRQIDDILSVASVRPAVLQVECHPYLAQNELIAHCQARGLEVTAYSPLGSSDRAWRDPDEPVLLEEPVVLALAEKYGRSPAQILLRWQVQRKVICIPKSITPSRILQNIKVFDFTFSPEEMKQLNALNKNWRYIVPMLTVDGKRVPRDAGHPLYPFNDPY
Molecule B2 has a Km [7] of 247 µM and a kcat [7] of 0.000667 s⁻¹.
